From paper PMC7563377

Biological target: PSMA (prostate-specific membrane antigen) (UniProt Q04609)
Assay: SPR
Conditions: 2'-fluoro modified ('2F-modified', positions not stated); 3' spacer-NH2 coupled to DSPE-PEG-NHS nanoparticle; OpenSPR, carboxyl chip with amine coupling, running buffer PBS pH 7.4, 20 uL/min; temperature not stated

Sequence of UniProt Q04609 (Q04609 44-750): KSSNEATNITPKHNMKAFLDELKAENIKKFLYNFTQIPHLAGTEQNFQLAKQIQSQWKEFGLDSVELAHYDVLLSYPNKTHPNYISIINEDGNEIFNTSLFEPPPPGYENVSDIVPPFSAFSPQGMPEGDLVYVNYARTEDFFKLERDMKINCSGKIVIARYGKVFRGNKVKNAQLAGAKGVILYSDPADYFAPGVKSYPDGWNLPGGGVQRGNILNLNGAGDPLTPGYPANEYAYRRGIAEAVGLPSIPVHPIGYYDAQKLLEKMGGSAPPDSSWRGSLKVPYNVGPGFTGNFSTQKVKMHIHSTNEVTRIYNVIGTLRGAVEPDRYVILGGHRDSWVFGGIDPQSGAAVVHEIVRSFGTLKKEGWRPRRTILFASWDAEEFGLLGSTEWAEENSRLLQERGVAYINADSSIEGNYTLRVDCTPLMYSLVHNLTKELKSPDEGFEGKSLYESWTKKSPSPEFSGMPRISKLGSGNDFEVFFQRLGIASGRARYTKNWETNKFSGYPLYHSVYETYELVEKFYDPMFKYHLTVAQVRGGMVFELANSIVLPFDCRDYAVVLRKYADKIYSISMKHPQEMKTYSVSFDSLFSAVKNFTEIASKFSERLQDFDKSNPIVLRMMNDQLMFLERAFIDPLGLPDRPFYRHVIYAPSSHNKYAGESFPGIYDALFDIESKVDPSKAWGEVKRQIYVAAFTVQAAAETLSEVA

GGGAGGACGAUGCGGAUCAGCCAUGUUUACGUCACUCCU
Kd: 0.602 µM
